The record followed here is patent US20120253017A1 (published 2012).

The Kd is a measure of binding affinity in units of concentration. In general, koff refers to the first-order rate constant of dissociation. A low value points to slow dissociation. For orientation: kon means the second-order rate constant of association. A higher kon goes with faster complex formation.

Read-outs that look alike come from different tables or passages of the source.

Experiment [1] addresses T1, human c-kit (recombinant, on BIAcore chip or beads) (human, UniProt P10721 26-524).
T1 construct: extracellular domain; also called hcKIT; biotinylated human c-kit
Description: BIAcore, c-kit on SA chip. As for the experimental part: (§1) All unique dAb clones were expressed in 50 ml cultures (OnEX plus carbenicillin) overnight at 37° C. and purified on protein A (VH dAbs) or protein L (VK dAbs). Purified dAbs were passed over a SA BIAcore chip coated with either human or mouse c-kit at 1 μM to identify those dAbs that bound specifically to either human or murine c-kit.

Experiment [2] addresses T2, cyno c-kit (recombinant, on BIAcore chip) (cynomolgus monkey).
T2 chain: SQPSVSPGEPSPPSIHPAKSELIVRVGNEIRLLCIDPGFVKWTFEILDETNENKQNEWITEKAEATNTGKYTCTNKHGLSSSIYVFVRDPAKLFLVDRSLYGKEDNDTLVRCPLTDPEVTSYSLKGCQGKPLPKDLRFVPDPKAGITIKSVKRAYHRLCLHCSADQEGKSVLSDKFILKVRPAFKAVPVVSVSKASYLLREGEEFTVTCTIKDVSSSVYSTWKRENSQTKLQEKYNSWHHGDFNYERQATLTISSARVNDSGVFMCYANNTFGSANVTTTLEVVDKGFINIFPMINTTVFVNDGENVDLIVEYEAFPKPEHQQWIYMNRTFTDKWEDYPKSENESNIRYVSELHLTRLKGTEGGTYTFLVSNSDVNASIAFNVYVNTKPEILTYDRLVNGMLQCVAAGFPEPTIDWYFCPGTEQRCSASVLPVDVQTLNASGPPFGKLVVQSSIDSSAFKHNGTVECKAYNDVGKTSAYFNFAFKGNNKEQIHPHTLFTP
As to the kind of experiment: BIAcore, c-kit on SA chip. On the technique in general: SPR reads the build-up and loss of mass on a sensor chip optically.

The target of experiment [3] is T3, mouse ventricular myosin light chain 1, GlySer(His)6 tag (mouse, UniProt P09542 1-204).
T3 construct: also called mouse vMLC-1
Description: BIAcore, vMLC-1 immobilised.

Experiment [4] addresses T4, human ventricular myosin light chain 1, GlySer(His)6 tag (human, UniProt P08590 1-195, limits assumed).
T4 construct: also called human vMLC-1; vMLC1-6xHIS
As to the kind of experiment: BIAcore, vMLC-1 immobilised.

Experiment [5] has as its target T5, rat cKIT ECD (rat, UniProt Q63116 25-526).
T5 construct: cloned into pDOM38, which provides a human IgG1 Fc; also called rcKIT; rckit; not shown: Human IgG1 Fc (and any linker) supplied by vector pDOM38
Description: BIAcore, bad fit.

Experiment [6] has as its target T2, cyno c-kit (recombinant, on BIAcore …). Description: BIAcore, c-kit on SA chip. The protocol:
as §1

Experiment [7] deals with T1, human c-kit (recombinant, on BIAcore …). Description: BIAcore.
Experiment [8] shares this target. Description: BIAcore 2000, 1 uM dAb. The protocol: All binding data was performed on a BIAcore 2000 instrument at 1 uM of dAb concentration.
Experiment [9] has as its target T6, human c-kit on HEL-92.1.7 and KU812 cells (human, UniProt P10721 26-976).
T6 construct: whole, on cells
Description: flow cytometry, HEL-92.1.7 cells. Background: Flow cytometry measures light scatter and fluorescence of single cells or particles in a stream.

Experiment [10] deals with T1, human c-kit (recombinant, on BIAcore …). Description: BIAcore, dAb at 1000 and 500 nM. As for the experimental part: Unique dAbs were expressed as bacterial supernatants in 2.5 L shake flasks in Onex media at 37° C. for 24 hrs at 250 rpm. dAbs were purified from the culture media by absorption to protein A or L agarose followed by elution with 10 mM glycine pH2.0.

Experiment [11] has the same target. As to the kind of experiment: BIAcore. The source holds these as a separate data set.
In experiment [12] the target is Myosin Light Chain (on streptavidin chip; vMLC1-sulfotag). Description: BIAcore, bad fit.
Experiment [13] has as its target T1, human c-kit (recombinant, on BIAcore …). Description: BIAcore, bad fit.

T6 sequence (P10721 26-976): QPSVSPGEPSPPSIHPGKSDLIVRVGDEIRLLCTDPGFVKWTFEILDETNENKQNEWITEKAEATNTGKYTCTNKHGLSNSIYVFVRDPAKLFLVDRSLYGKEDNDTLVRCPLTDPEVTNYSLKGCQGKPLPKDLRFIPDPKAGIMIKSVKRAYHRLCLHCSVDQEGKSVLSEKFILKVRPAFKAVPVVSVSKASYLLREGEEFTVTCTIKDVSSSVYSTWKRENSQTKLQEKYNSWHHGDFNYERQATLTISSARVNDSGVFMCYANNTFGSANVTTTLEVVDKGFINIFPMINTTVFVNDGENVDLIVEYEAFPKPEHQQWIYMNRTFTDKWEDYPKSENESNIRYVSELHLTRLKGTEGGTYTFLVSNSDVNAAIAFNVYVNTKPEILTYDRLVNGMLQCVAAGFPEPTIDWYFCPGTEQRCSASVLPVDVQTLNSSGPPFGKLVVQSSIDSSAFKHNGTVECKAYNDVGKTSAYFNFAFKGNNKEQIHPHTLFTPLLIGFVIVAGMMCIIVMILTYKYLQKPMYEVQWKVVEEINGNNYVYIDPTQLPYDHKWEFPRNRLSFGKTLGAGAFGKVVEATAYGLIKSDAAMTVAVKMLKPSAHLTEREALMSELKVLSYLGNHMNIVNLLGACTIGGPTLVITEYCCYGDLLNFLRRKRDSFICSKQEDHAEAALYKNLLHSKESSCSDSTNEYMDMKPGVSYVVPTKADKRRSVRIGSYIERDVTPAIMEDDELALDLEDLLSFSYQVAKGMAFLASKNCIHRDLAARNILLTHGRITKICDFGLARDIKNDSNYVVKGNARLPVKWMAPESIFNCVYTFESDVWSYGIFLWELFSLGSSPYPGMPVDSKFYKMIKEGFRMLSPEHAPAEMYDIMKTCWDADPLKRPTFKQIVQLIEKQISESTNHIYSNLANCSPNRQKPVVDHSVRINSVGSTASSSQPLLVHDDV
T4 sequence (P08590 other isoform, or with tags, fused parts or gaps limits assumed): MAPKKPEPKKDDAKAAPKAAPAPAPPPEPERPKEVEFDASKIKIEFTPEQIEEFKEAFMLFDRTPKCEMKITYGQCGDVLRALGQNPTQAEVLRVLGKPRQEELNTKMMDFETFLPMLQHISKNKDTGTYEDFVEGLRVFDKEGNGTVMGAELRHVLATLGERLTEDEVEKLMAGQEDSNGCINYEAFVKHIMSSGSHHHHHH
T3 sequence (P09542 other isoform, or with tags, fused parts or gaps): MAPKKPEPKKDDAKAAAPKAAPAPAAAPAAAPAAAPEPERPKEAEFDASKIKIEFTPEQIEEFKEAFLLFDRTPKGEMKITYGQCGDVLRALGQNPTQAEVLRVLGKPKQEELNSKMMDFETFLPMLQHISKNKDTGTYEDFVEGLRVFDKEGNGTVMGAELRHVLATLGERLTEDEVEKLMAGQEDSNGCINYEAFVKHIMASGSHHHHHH
Chain of Myosin Light Chain (on streptavidin chip; vMLC1-sulfotag) (chain, as listed by the source): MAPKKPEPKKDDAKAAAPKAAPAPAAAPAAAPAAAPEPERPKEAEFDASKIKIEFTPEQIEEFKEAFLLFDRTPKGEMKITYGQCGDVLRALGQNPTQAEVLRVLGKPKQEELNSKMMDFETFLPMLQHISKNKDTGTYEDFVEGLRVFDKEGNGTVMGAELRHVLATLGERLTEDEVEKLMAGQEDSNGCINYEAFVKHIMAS
T5 sequence (Q63116 entry or part of it limits assumed, form in doubt): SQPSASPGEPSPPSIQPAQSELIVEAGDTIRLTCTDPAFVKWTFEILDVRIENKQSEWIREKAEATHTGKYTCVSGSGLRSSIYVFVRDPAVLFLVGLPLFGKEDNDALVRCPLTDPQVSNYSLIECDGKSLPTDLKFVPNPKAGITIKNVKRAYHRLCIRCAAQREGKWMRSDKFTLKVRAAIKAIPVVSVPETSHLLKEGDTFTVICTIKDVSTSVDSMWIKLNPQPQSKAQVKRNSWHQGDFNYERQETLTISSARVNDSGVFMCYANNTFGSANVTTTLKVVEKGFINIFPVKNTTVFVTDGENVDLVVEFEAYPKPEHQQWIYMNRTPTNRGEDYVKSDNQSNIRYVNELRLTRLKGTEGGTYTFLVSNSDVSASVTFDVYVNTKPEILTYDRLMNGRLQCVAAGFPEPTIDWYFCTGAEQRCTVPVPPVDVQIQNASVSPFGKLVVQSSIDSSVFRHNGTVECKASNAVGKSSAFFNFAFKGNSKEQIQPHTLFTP

B1: DOM28h-43 (other)
chain: DIQMTQSPSSLSASVGDRVTITCRASSPIGESLKWYQQKPGKAPKLLIWGGSWLQSGVPSRFSGSGSGTDFTLTISSLQPEDFATYYCGPGRGWPLTFGQGTKVEIKR
notes: dAb, C-terminal FLAG tag (pDOM10); also called DOM28h-043
On to B1, for which the Kd in experiment [1] came to 239 nM; in [2], 345 nM.

B2: anti-MLC mAb 39-15 purified from the hybridoma (ATCC HB11709) (antibody, mouse IgG1, V domains shown)
VH: QVQLQQSGAELASPGASVKLSCKASGYTFTTYWIHWVKQRPGQGLEWIGAIYPGDGDTRYTQNFKDKATLTADSSSSTAYMQLSSLASEDSAVFYCAREGTPPFTTATFAMAYWGQGTSVTVSS
VL: DIVMSQSPSSLAVSAGDKVTMSCKSSQSLLYSRTRKNYLAWYQQKPGQSPKLLIYWASTRQSGVPDRFTGSGSGTDFTLTISSVQAEDLAVYYCKQSYNLFTFGSGTKLEIKR
notes: mouse IgG1 kappa; also called anti-MLC (Hybridoma)
In [3], B2 gave a Kd of 0.0235 nM, a koff of 3.07e-05 s⁻¹ and a kon of 1.31e+06 M⁻¹ s⁻¹. In [4], binding was characterised by a dissociation constant (Kd) of 0.0003 nM, the koff was determined as 1.1e-06 s⁻¹ and the kon came out at 3.5e+06 M⁻¹ s⁻¹.

B3: recombinant anti-MLC mAb (39-15) (antibody, mouse IgG1, V domains shown)
VH: QVQLQQSGAELASPGASVKLSCKASGYTFTTYWIHWVKQRPGQGLEWIGAIYPGDGDTRYTQNFKDKATLTADSSSSTAYMQLSSLASEDSAVFYCAREGTPPFTTATFAMAYWGQGTSVTVSS
VL: DIVMSQSPSSLAVSAGDKVTMSCKSSQSLLYSRTRKNYLAWYQQKPGQSPKLLIYWASTRQSGVPDRFTGSGSGTDFTLTISSVQAEDLAVYYCKQSYNLFTFGSGTKLEIKR
notes: mouse IgG1 heavy and mouse kappa constant regions, expressed in HEK293E
In experiment [3], B3 displayed a Kd of 0.0222 nM, a koff of 3.46e-05 s⁻¹ and a kon of 1.56e+06 M⁻¹ s⁻¹. In experiment [4], this molecule showed a Kd of 0.0047 nM, a koff of 1.78e-05 s⁻¹ and a kon of 3.81e+06 M⁻¹ s⁻¹.

B4: DOM28m-23 (other)
VH: EVRLLESGGGLVQPGGSLRLSCAASGFTFRDYVMVWVRQAPGKGLEWVSAIAPTGGYTYYADSVKGRFTISRDNSKNTLYLQMNSLRAEDTAVYYCAKSLRTWLSEDLPFDYWGQGTLVTVSS
notes: VH dAb, C-terminal FLAG tag (pDOM10); also called DOM28m-023
B4: the Kd in experiment [5] was determined as 25 nM; in experiment [6], 2720 nM; in experiment [1], 2900 nM; in experiment [7], 6000 nM; in [8], 6000 nM.

B5: DOM28m-47 (other)
VH: EVQLLESGGGLVQPGGSLRLSCAASGFTFEAYGMMWVRQAPGKGLEWVSSISHSGLITYYADSVKGRFTISRDNSKNTLYLQMNSLRAEDTAVYYCAENGPLRQNSYFDYWGQGTLVTVSS
notes: dAb, C-terminal FLAG tag (pDOM10)
B5: the binding result in [9] is listed as “binds”.

B6: DOM28h-5 (other)
chain: DIQMTQSPSSLSASVGDRVTITCRASQWIGTALTWYQQKPGKAPKLLIYRGSYLQSGVPSRFSGSGSGTDFTLTISSLQPEDFATYYCQQRYFHPYTFGQGTRVEIKR
notes: dAb, C-terminal FLAG tag (pDOM10); also called DOM28h-005
As to B6, the Kd stood at 533 nM in [1], 550 nM in [2] and 533 nM in [10].

B7: DOM28h-94 (other)
VH: EVQLLESGGGLVQPGGSLRLSCAASGFTFFPYAMGWVRQAPGKGLEWVSFISGRGDTTYYADSVKGRFTISRDNSKNTLYLQMNSLRAEDTAVYYCAKTATSDLWNFDYWGQGTLVTVSS
notes: VH dAb, C-terminal FLAG tag (pDOM10); also called DOM28h-094
Consider B7, for which the Kd in [1] was 21800 nM; in [2] it was 19200 nM; in experiment [10] it was 21800 nM.

B8: DOM28h-84 (other)
chain: EVQLLESGGGLVQPGGSLRLSCAASGFTFSSYGMSWVRQAPGKGLEWVSWISGTGSGTYYADSVKGRFTISRDNSKNTLYLQMNSLRAEDTAVYYCAKGVPGNNRALFDYWGQGTLVTVSS
notes: dAb, C-terminal FLAG tag (pDOM10); also called DOM28h-084
For the molecule B8, the figures for the Kd in experiment [1], in experiment [2] and in experiment [10] were 896 nM, 10200 nM and 896 nM, respectively.

B9: DMS5053 (chimeric MLC mAb-cKIT dAb, DOM28m-017) (bispecific antibody)
heavy: not shown
light: DIVMSQSPSSLAVSAGDKVTMSCKSSQSLLYSRTRKNYLAWYQQKPGQSPKLLIYWASTRQSGVPDRFTGSGSGTDFTLTISSVQAEDLAVYYCKQSYNLFTFGSGTKLEIKRTVAAPSVFIFPPSDEQLKSGTASVVCLLNNFYPREAKVQWKVDNALQSGNSQESVTEQDSKDSTYSLSSTLTLSKADYEKHKVYACEVTHQGLSSPVTKSFNRGEC
Consider B9, for which the figures for the Kd in [11] and in [12] were 36000 nM and 0.003 nM, respectively.

B10: DMS5057 (chimeric MLC mAb-cKIT dAb, DOM28m-109) (bispecific antibody)
heavy: not shown
light: DIVMSQSPSSLAVSAGDKVTMSCKSSQSLLYSRTRKNYLAWYQQKPGQSPKLLIYWASTRQSGVPDRFTGSGSGTDFTLTISSVQAEDLAVYYCKQSYNLFTFGSGTKLEIKRTVAAPSVFIFPPSDEQLKSGTASVVCLLNNFYPREAKVQWKVDNALQSGNSQESVTEQDSKDSTYSLSSTLTLSKADYEKHKVYACEVTHQGLSSPVTKSFNRGEC
For the molecule B10, the Kd in experiment [11] came to 318 nM; in [12] it was 0.116 nM.

B11: DMS5055 (chimeric MLC mAb-cKIT dAb, DOM28m-104) (bispecific antibody)
heavy: not shown
light: DIVMSQSPSSLAVSAGDKVTMSCKSSQSLLYSRTRKNYLAWYQQKPGQSPKLLIYWASTRQSGVPDRFTGSGSGTDFTLTISSVQAEDLAVYYCKQSYNLFTFGSGTKLEIKRTVAAPSVFIFPPSDEQLKSGTASVVCLLNNFYPREAKVQWKVDNALQSGNSQESVTEQDSKDSTYSLSSTLTLSKADYEKHKVYACEVTHQGLSSPVTKSFNRGEC
Turning to B11, the Kd in experiment [11] came to 72 nM; in experiment [12] it was 0.124 nM.

B12: DMS5059 (chimeric MLC mAb-cKIT dAb, DOM28m-114) (bispecific antibody)
heavy: not shown
light: DIVMSQSPSSLAVSAGDKVTMSCKSSQSLLYSRTRKNYLAWYQQKPGQSPKLLIYWASTRQSGVPDRFTGSGSGTDFTLTISSVQAEDLAVYYCKQSYNLFTFGSGTKLEIKRTVAAPSVFIFPPSDEQLKSGTASVVCLLNNFYPREAKVQWKVDNALQSGNSQESVTEQDSKDSTYSLSSTLTLSKADYEKHKVYACEVTHQGLSSPVTKSFNRGEC
On to B12, for which the Kd in [12] is 10 nM; in experiment [13] it was 8 nM.

B13: DOM28m-52 (other)
chain: EVQLLESGGGLVQPGGSLRLSCAASGFTFSSYNMSWVRQAPGKGLEWVSWISSSGLMTYYADSVKGRFTISRDNSKNTLYLQMNSLRAEDTAVYYCAKTSLGSHPSRRPFDYWGQGTLVTVSS
notes: as for B5
Regarding B13, in experiment [9], the binding result is on record as “binds”.

B14: DOM28m-7 (other)
VH: EVQLLESGGGLVQPGGSLRLSCAASGFTFSNYAMGWVRQAPGKGLEWVSSISSSGFATYYADSVKGRFTISRDNSKNTLYLQMNSLRAEDTAVYYCAKSESRTFKAFDYWGQGTLVTVSS
notes: VH dAb, C-terminal FLAG tag (pDOM10); also called DOM28m-007
With B14, the Kd turned out to be 30 nM in [5], 29000 nM in [6] and 7200 nM in experiment [1].

B15: DOM28h-33 (other)
chain: EVQLLESGGGLVQPGGSLRLSCAVSGFTFWNYRMGWVRQAPGKGLEWVSSITPQGTHTYYADSVKGRFTISRDNSKNTLYLQMNSLRAEDTAVYYCAKILSMSENHFDYWGQGTLVTVSS
notes: dAb, C-terminal FLAG tag (pDOM10); also called DOM28h-033
In the case of B15, the Kd in experiment [1] was 48 nM; in [2], 98.5 nM; in experiment [10] it was 48 nM.

B16: DOM28m-53 (other)
VH: EVQLLESGGGLVQPGGSLRLSCAASGFTFSDYMMMWVRQAPGKGLEWVSTIDHAGAVTYYADSVKGRFTISRDNSKNTLYLQMNSLRAEDTAVYYCAKNQPVWQANQSRRFDYWGQGTLVTVSS
notes: as for B5
For B16, the binding result in [9] was “binds”.
